Reference: patent US20140219978A1 (published 2014)

Legend:
[1] = target: T1, gp100 peptide on HLA-A*02:01 (human); experiment: multimer staining
T1 peptide: ITDQVPFSV

[2] = target: none (gp100-negative cells) peptide on HLA-A2 (human); experiment: RNA-electroporated human PBL with HLA-A2+ gp100-negative melanoma A375; 31 pg/ml for transduced PBL in Table 7; text: did not recognize melanoma cell lines not expressing gp100; full-length, on cells; conditions: chains Valpha:Vbeta

B1: Sp(0.01)A TCR (TCR, V domains shown)
Valpha: QQKVQQSPESLIVPEGAMTSLNCTFSDSASQYFAWYRQHSGKAPKALMSIFSNGEKEEGRFTIHLNKASLHFSLHIRDSQPSDSALYLCAANNYAQGLTFGLGTRVSVFP
Vbeta: EAAVTQSPRSKVAVTGGKVTLSCHQTNNHDYMYWYRQDTGHGLRLIHYSYVADSTEKGDIPDGYKASRPSQENFSLILELASLSQTAVYFCASSPGGGGEQYFGPGTRLTVL
With B1 the binding result [1] was “no recognition” and the IFN-gamma release [2] was 45 pg/mL.
